Assays:
[1] = target: ARNT PAS-B (Homo sapiens) (UniProt P27540); assay: NMR; details: cited from earlier work
[2] = target: Drosophila PERIOD fragment lacking helix αF, dPERΔαF[232–538] (Drosophila melanogaster) (UniProt P07663); assay: AUC; sedimentation equilibrium, interference optics, 10 °C, 25 mM HEPES pH 7.7, 100 mM NaCl, 2 mM DTE; four starting concentrations from stocks of 0.8–2 mg/ml; dimer to monomers, K D = 1/K A

Sequence of ARNT PAS-B (P27540 356-470): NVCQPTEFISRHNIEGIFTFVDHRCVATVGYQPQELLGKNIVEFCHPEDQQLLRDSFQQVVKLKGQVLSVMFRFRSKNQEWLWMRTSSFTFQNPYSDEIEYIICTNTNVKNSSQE
Sequence of HIF-2α PAS-B (Q99814 239-350): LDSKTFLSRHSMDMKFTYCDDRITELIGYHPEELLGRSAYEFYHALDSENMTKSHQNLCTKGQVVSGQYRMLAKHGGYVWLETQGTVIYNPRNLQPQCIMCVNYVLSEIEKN

| Kd [2] | Substance | Kd [1] |
| --- | --- | --- |
| – | ARNT PAS-B (from UniProt P27540) | 500 µM |
| 256 µM | Drosophila PERIOD fragment lacking helix αF, dPERΔαF[232–538] (from UniProt P07663 232-538) (domain or fragment) | – |
| – | HIF-2α PAS-B (from UniProt Q99814) | 30 µM |

Source: article PMC2671562
